How the values were obtained:
Assay in all cases: cell-based or functional assay
[1] = biological target: HIV-1 Env of CAP256.PI (HIV-1)
[2] = biological target: HIV-1 Env of CAP256.SU (HIV-1)
[3] = biological target: HIV-1 Env of 96ZM651.02 (HIV-1)
[4] = biological target: HIV-1 Env of CAP210.E8 (HIV-1)
[5] = biological target: HIV-1 Env of CAP244.D3 (HIV-1)
[6] = biological target: HIV-1 Env of CAP45.G3 (HIV-1)
[7] = biological target: HIV-1 Env of DU156.12 (HIV-1)
[8] = biological target: HIV-1 Env of DU172.17 (HIV-1)
[9] = biological target: HIV-1 Env of DU422.01 (HIV-1)
[10] = biological target: HIV-1 Env of ZM109.4 (HIV-1)
[11] = biological target: HIV-1 Env of ZM135.10a (HIV-1)
[12] = biological target: HIV-1 Env of ZM197.7 (HIV-1)
[13] = biological target: HIV-1 Env of ZM214.15 (HIV-1)
[14] = biological target: HIV-1 Env of ZM233.6 (HIV-1)
[15] = biological target: HIV-1 Env of ZM249.1 (HIV-1)
[16] = biological target: HIV-1 Env of ZM53.12 (HIV-1)
[17] = biological target: HIV-1 Env of 0260.v5.c36 (HIV-1)
[18] = biological target: HIV-1 Env of BG505.w6m (HIV-1)
[19] = biological target: HIV-1 Env of KER2008.12 (HIV-1)
[20] = biological target: HIV-1 Env of KER2018.11 (HIV-1)
[21] = biological target: HIV-1 Env of MB201 (HIV-1)
[22] = biological target: HIV-1 Env of MB539.2B7 (HIV-1)
[23] = biological target: HIV-1 Env of Q168.a2 (HIV-1)
[24] = biological target: HIV-1 Env of Q23.17 (HIV-1)
[25] = biological target: HIV-1 Env of Q259.d2.17 (HIV-1)
[26] = biological target: HIV-1 Env of Q461.e2 (HIV-1)
[27] = biological target: HIV-1 Env of Q769.d22 (HIV-1)
[28] = biological target: HIV-1 Env of Q842.d12 (HIV-1)
[29] = biological target: HIV-1 Env of RW020.2 (HIV-1)
[30] = biological target: HIV-1 Env of UG037.8 (HIV-1)
[31] = biological target: HIV-1 Env of 6535.3 (HIV-1)
[32] = biological target: HIV-1 Env of AC10.29 (HIV-1)
[33] = biological target: HIV-1 Env of CAAN.A2 (HIV-1)
[34] = biological target: HIV-1 Env of PVO.04 (HIV-1)
[35] = biological target: HIV-1 Env of QH0692.42 (HIV-1)
[36] = biological target: HIV-1 Env of REJO.67 (HIV-1)
[37] = biological target: HIV-1 Env of RHPA.7 (HIV-1)
[38] = biological target: HIV-1 Env of SC422.8 (HIV-1)
[39] = biological target: HIV-1 Env of THRO.18 (HIV-1)
[40] = biological target: HIV-1 Env of TRJO.58 (HIV-1)
[41] = biological target: HIV-1 Env of TRO.11 (HIV-1)
[42] = biological target: HIV-1 Env of WITO.33 (HIV-1)
[43] = biological target: HIV-1 Env of 191821.E6.1 (HIV-1)
[44] = biological target: HIV-1 Env of 3016.V5.c36 (HIV-1)
[45] = biological target: HIV-1 Env of 6405.v4.c34 (HIV-1)
[46] = biological target: HIV-1 Env of C1080.c3 (HIV-1)
[47] = biological target: HIV-1 Env of CM244.ec1 (HIV-1)
[48] = biological target: HIV-1 Env of CNE3 (HIV-1)
[49] = biological target: HIV-1 Env of TH976.17 (HIV-1)
[50] = biological target: HIV-1 Env of strain CNE3 (clade AE), on Env-pseudovirus (HIV-1 strain CNE3)
[51] = biological target: HIV-1 Env of strain TH976.17 (clade AE), on Env-pseudovirus (HIV-1 strain TH976.17)
[52] = biological target: SIV Env of SIVmac251.30 (nonHIV control), on Env-pseudovirus (SIVmac251.30)

B1: CAP256-VRC26.04 (antibody, V domains shown)
VH: EVQLVESGGGVVQPGKSLRLSCAASQFSFNRYGMHWVRQAPGKGLEWVAAISYDGTDKYHADKVWGRFTISRDNSKNTLYLQMNSLRAEDTALYYCAKDLREDECEEWWSDYYDFGKQLPCRKSRGVAGIFDKWGQGTMVIVSS
VL: QPVLTQPPSVSAAPGQKVTISCSGSSSNIGNNFVSWYQQRPGTAPSLLIYETNKRPSGIPDRFSGSKSATSATLAITGLQTGDEADYYCATWAASLTSARVFGTGTKVIVSG
neutralization IC50 [1]: > 50 µg/mL
neutralization IC50 [2]: 0.003 µg/mL
neutralization IC50 [3]: > 50 µg/mL
neutralization IC50 [4]: 0.005 µg/mL
neutralization IC50 [5]: > 50 µg/mL
neutralization IC50 [6]: > 50 µg/mL
neutralization IC50 [7]: 10.4 µg/mL
neutralization IC50 [8]: > 50 µg/mL
neutralization IC50 [9]: 4.17 µg/mL
neutralization IC50 [10]: > 50 µg/mL
neutralization IC50 [11]: > 50 µg/mL
neutralization IC50 [12]: 0.254 µg/mL
neutralization IC50 [13]: > 50 µg/mL
neutralization IC50 [14]: 0.06 µg/mL
neutralization IC50 [15]: 11.4 µg/mL
neutralization IC50 [16]: 0.004 µg/mL
neutralization IC50 [17]: > 50 µg/mL
neutralization IC50 [18]: 8.43 µg/mL
neutralization IC50 [19]: > 50 µg/mL
neutralization IC50 [20]: 0.008 µg/mL
neutralization IC50 [21]: > 50 µg/mL
neutralization IC50 [22]: > 50 µg/mL
neutralization IC50 [23]: > 50 µg/mL
neutralization IC50 [24]: 23.6 µg/mL
neutralization IC50 [25]: 0.025 µg/mL
neutralization IC50 [26]: > 50 µg/mL
neutralization IC50 [27]: > 50 µg/mL
neutralization IC50 [28]: > 50 µg/mL
neutralization IC50 [29]: > 50 µg/mL
neutralization IC50 [30]: > 50 µg/mL
neutralization IC50 [31]: > 50 µg/mL
neutralization IC50 [32]: > 50 µg/mL
neutralization IC50 [33]: > 50 µg/mL
neutralization IC50 [34]: > 50 µg/mL
neutralization IC50 [35]: > 50 µg/mL
neutralization IC50 [36]: > 50 µg/mL
neutralization IC50 [37]: > 50 µg/mL
neutralization IC50 [38]: > 50 µg/mL
neutralization IC50 [39]: > 50 µg/mL
neutralization IC50 [40]: > 50 µg/mL
neutralization IC50 [41]: > 50 µg/mL
neutralization IC50 [42]: > 50 µg/mL
neutralization IC50 [43]: > 50 µg/mL
neutralization IC50 [44]: 0.283 µg/mL
neutralization IC50 [45]: > 50 µg/mL
neutralization IC50 [46]: 0.212 µg/mL
neutralization IC50 [47]: 0.361 µg/mL
neutralization IC50 [48]: > 50 µg/mL
neutralization IC50 [49]: > 50 µg/mL

B2: CAP256-VRC26.10 (antibody, V domains shown)
VH: QAILVESGGGVVQPGRSLRLSCAASQFTFSGHGLHWVRQAPGKGLEWVASISFAGTKMDYADSVKGRFAISRDNSKNTLYLQMNSLRVEDTALYYCAKDMREYECEYWTSDYYDFGRPQPCIDRRGVVGIFDMWGQGTMVTVST
VL: QSVLTQPPSVSAAPGQKVTISCSGSSSNIGDNYVSWYQHLPGTAPKLLIYENTRRPSGIPDRFSGSKSGTSATLAITGLQTGDEADYYCGTWDVRPNRGAVFGTGTKVTVLG
IC50, neutralization of Env-pseudovirus (TZM-bl assay) [50]: > 50 µg/mL
IC50, neutralization of Env-pseudovirus (TZM-bl assay) [51]: > 50 µg/mL
IC50, neutralization of Env-pseudovirus (TZM-bl assay) [52]: > 50 µg/mL

B3: CAP256-VRC26.08 (antibody, V domains shown)
VH: EVQLVESGGGVVQPGRSLTLSCAASQFTFSNYGMHWVRQAPGKGLEWVASVSNDGTKKYHGDSVWGRFTISRDNSKNTLFLQMSSLRAEDTAVYFCVRDQREDECEEWWSDYYDFGRELPCRKFRGLGLAGIFDIWGHGTMVTVSS
VL: QSALTQPPSVSAAPGQKVTISCSGNSSNIGNNFVSWYQQVPGTAPKLLLYETYRRPSGIPDRFSGSKSGTSATLAITGLQTGDEADYYCTVWGVRKGVGAVFGTGTKVTVLG
IC50, neutralization of Env-pseudovirus (TZM-bl assay) [50]: > 50 µg/mL
IC50, neutralization of Env-pseudovirus (TZM-bl assay) [51]: > 50 µg/mL
IC50, neutralization of Env-pseudovirus (TZM-bl assay) [52]: > 50 µg/mL

From US20200199204A1 (UNITED STATES OF AMERICA AS REPRESENTED BY THE SECRETARY …, published 2020)
